Consider 6 molecules from patent publication US20210246209A1 (SHANGHAI JUNSHI BIOSCIENCES, published 2021).

Read-outs that look alike come from different tables or passages of the source.

The target in experiment [1] is T1, hBTLA (human BTLA protein coated on plates or coupled to a chip) (human, UniProt Q7Z6A9 31-157, limits assumed).
T1 sequence (looked up): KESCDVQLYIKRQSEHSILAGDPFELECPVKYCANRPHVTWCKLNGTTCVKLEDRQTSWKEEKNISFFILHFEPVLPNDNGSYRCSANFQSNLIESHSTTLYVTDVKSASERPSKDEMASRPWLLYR
In words: ELISA, hBTLA coated at 0.5 µg/mL, anti-human IgG4-HRP detection. The protocol:
(§1) The binding specificity of the humanized antibodies to hBTLA was determined by conventional ELISA method. A 96-well microplate was coated with 0.5 μg/mL hBTLA and incubated at 37° C. for 60 minutes. The solution in wells was then discarded, and the wells were washed 3 times with washing buffer, and blocked for 60 minutes with PBS containing 2% BSA. After being washed 3 times with washing buffer, the wells were added with gradiently-diluted antibodies, incubated at 37° C. for 60 minutes, and washed 3 times with washing buffer before adding a HRP-labeled mouse anti-human IgG4 secondary antibody diluted at 1:10000. The mixture was incubated at 37° C. for 1 hour, washed three times with washing buffer, and added with 100 μL of TMB substrate solution for color development at room temperature for 30 minutes, then the reaction was stopped with 100 μL of 2M hydrochloric acid solution and the absorbance was read at 450 nm.
The humanized antibodies hu17, hu18, and hu19 can specifically bind to hBTLA.
Background: ELISA stands for enzyme-linked immunosorbent assay.

Experiment [2] concerns the target T2, recombinant protein of human BTLA extracellular domain (hBTLA-ECD-FC) (human, UniProt Q7Z6A9 31-157, biotin-labeled in the FACS blocking assays (site not stated)).
T2 construct: extracellular domain; also called BTLA-Fc; biotin-labeled hBTLA; not shown: Fc of the self-constructed HX1-FC expression plasmid
T2 sequence (looked up): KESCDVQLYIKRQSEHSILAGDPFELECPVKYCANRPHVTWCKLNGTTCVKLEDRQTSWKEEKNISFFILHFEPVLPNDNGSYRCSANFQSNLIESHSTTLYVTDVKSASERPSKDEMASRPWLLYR
The experiment can be described thus: FACS, blocking of biotin-labeled hBTLA binding to hHVEM-293F cells. The protocol:
(§2) Then the cells were mixed with previously biotin-labeled hBTLA (1 μg/mL) protein, incubated at 4° C. for 15 minutes, followed by mixing with 50 μL of humanized antibody diluent (initial concentration: 5 μg/mL, 3-fold titration) at different concentrations, and incubating at room temperature for 30 minutes. After being washed with an FACS buffer twice, the cells were added with 100 μL of goat anti-human IgG-PE antibody, incubated for 30 minutes away from light, and assayed by FACS after two washes with an FACS buffer. The washed cells were resuspended in 4° C. buffer containing propidium iodide (PI) and 0.02% sodium azide that prevents receptor internalization and analyzed by flow cytometry. Viable cells were gated on the basis of PI positive cells being excluded from the FSC/SSC gate and their geometric mean fluorescence intensity was measured. The data were analyzed using a sigmoidal dose-response model within Prism™ software.
The […] antibodies hu17, hu18, and hu19 can effectively block the binding of human BTLA to HVEM on the cell surface.
(In flow cytometry, cells or beads pass a laser one at a time.)

For experiment [3], the target named is T3, human BTLA expressed on cells (human, UniProt Q7Z6A9 31-289). The experiment can be described thus: cell-based or functional assay.
For experiment [4], the target named is T3, human BTLA expressed on cells. In words: FACS on 293F cells expressing hBTLA. The protocol: The humanized anti-BTLA antibodies were determined for their binding ability to hBTLA expressed on cells using cell-based flow cytometry (FACS). […] Then the cells were mixed with 50 μL of antibody diluent at different concentrations (initial concentration: 10 μg/mL, 3-fold titration), and incubated at room temperature for 30 minutes. After being washed with an FACS buffer twice, the cells were added with 100 μL of goat anti-human IgG-PE antibody, incubated for 30 minutes away from light, and assayed by FACS after two washes with an FACS buffer. The washed cells were resuspended in 4° C. buffer containing propidium iodide (PI) and 0.02% sodium azide that prevents receptor internalization and analyzed by flow cytometry. Viable cells were gated on the basis of PI positive cells being excluded from the FSC/SSC gate and their geometric mean fluorescence intensity was measured. The data were analyzed using a sigmoidal dose-response model within Prism™ software.
The humanized antibodies hu17, hu18, and hu19 can effectively bind to hBTLA on 293 cells.

Experiment [5] addresses T2, recombinant protein of human BTLA …. In words: FACS, blocking of biotin-labeled hBTLA binding to hHVEM-293F cells. The protocol: as §2, with “chimeric” for “humanized”, “intensity (MFI)” for “intensity”, “PrismTM” for “Prism™”
The chimeric antibodies ch12, ch17, ch22 and ch27 can effectively block the binding of human BTLA to HVEM on the cell surface.
The source holds these as a separate data set.

For experiment [6], the target named is T1, hBTLA (human BTLA protein coated on …). The experiment can be described thus: ELISA, hBTLA coated at 0.5 µg/mL, anti-human IgG4-HRP detection. The protocol: as §1, with “ability” for “specificity”, “chimeric” for “humanized”, “assayed” for “determined”, “ELISA.” for “conventional ELISA method.”
The chimeric antibodies ch7, ch12, ch17, ch22 and ch27 can specifically bind to hBTLA.
The source holds these as a separate data set.

B1: humanized antibody hu19 (antibody, V domains shown)
VH: QVQLVQSGAEVKKPGASVKLSCKASGYNFKHTYAHWVRQAPGQGLEWIGRIDPANGNTKYDPKFQGRATMTADTASNTAYLELSSLRSEDTAVYYCVADHYGSSLLDYWGQGTLVTVSS
VL: DIVMTQTPLSLSVTPGQPASISCKSSQSLLDSDGKTYLNWFQQRPGQSPRRLMHLVSKLDSGVPDRFSGSGSGTDFTLKISRVEAEDVGVYYCWQGTYFPYTFGQGTKLEIK
notes: It was detected with an anti-human IgG4 secondary antibody
As usually defined, the EC50 is the concentration that produces a half-maximal response. Read a low EC50 as greater potency. A word on the IC50: it is the point on the concentration scale where inhibition reaches its midpoint. Turning to B1, the EC50 turned out to be 0.0066 µg/mL in experiment [1] and 0.0951 µg/mL in experiment [4]. Besides, the IC50 in experiment [2] came to 0.162 µg/mL. Further, the “EC50 (luciferase reporter, T cell activation)” value in experiment [3] was 0.29 µg/mL.

B2: chimeric antibody ch12 (antibody, human IgG4, V domains shown)
VH: EVQLQQSGADLVKPGASVKLSCTASGFNFKHTYAHWVKQRPEQGLEWIGRIDPANGNTKYDPKFQGKATMTADTASNAAFLQLSSLTSEDTAVYYCVADHYGSSLLDYWGQGTSLTVSS
VL: EVVMTQTPLTLSVTIGQSASISCKSSQSLLDSDGKTYLNWFLQRPGQSPKRLMHLVSKLDSGVPDRFTGSGSGTDFTLKISGVEAEDLGVYYCWQGTYFPYTFGGGTKLETK
notes: T0010 gives only CDR numbers (HCDR 13-15, LCDR 10-12)
For the molecule B2, the IC50 in experiment [2] stood at 0.157 µg/mL; in experiment [5], 0.0772 µg/mL. Further, the “EC50 (luciferase reporter, T cell activation)” value in experiment [3] was 0.139 µg/mL. Also, the EC50 amounted to 0.0094 µg/mL in experiment [6] and 0.0881 µg/mL in experiment [4].

B3: chimeric antibody ch17 (antibody, human IgG4, V domains shown)
VH: EVQLQQSGADLVKPGASVKLSCTASGFNIKDTYVHWVKQRPEQGLEWIGRIDPANGHTKFDPKFQGKATITADTSSNTANLQISSLTSEDTAVYYCVSDYYGSSLLDYWGQGTTLTVSS
VL: EVVMTQTPLTLSVTIGQSASISCKSSQSLLDSDGKTYLNWFLQRPGQSPKRLMHLVSKLDSGVPDRFTGSGSGTDFTLKISGVEAEDLGVYYCWQGTYFPYTFGGGTKLETK
notes: T0010 gives only CDR numbers (HCDR 19-21, LCDR 10-12)
As for B3, the IC50 in experiment [5] came out at 0.0761 µg/mL. For the same molecule, the EC50 in experiment [6] worked out at 0.0298 µg/mL.

B4: chimeric antibody ch7 (antibody, human IgG4, V domains shown)
VH: EVQLQQSGAELVKPGASVKLSCTVSGFNIKDSYIHWVKQRPEQGLEWIGRIDPANGNTKYDPKFRGKATITADASSNTAALQVSSLTSEDTAVYFCVGDHYGSSLFDYWGHGTTLTVSS
VL: EVVMTQTPLTLSVTIGQSASISCKSSQSLLDSDGKTYLNWFLQRPGQSPKRLMHLVSKLDSGVPDRFTGSGSGTDFTLKISGVEAEDLGVYYCWQGTYFPYTFGGGTKLETK
notes: T0010 gives only CDR numbers (HCDR 4-6, LCDR 10-12)
Consider B4, for which the midpoint of the response in experiment [6], the EC50, lay at 0.0066 µg/mL.

B5: chimeric antibody ch27 (antibody, human IgG4, V domains shown)
VH: EVHLQQSGTELMKPGASVKLSCTASGLNIRDTYMHWVKQRPEQGLEWIGRIDPANGNTKFDPKFQGKATLTSDTSSNTAYLHFSSLTSEDAAVYYCVSDHYGSSLLDYWGQGTSLTVSS
VL: EVVMTQTPLTLSVTIGQSASISCKSSQSLLDSDGKTYLNWFLQRPGQSPKRLMHLVSKLDSGVPDRFTGSGSGTDFTLKISGVEAEDLGVYYCWQGTYFPYTFGGGTKLETK
notes: T0010 gives only CDR numbers (HCDR 28-30, LCDR 10-12)
In the case of B5, the IC50 in experiment [5] came to 0.0695 µg/mL. The molecule also yielded an EC50 in experiment [6] of 0.0052 µg/mL.

B6: chimeric antibody ch22 (antibody, human IgG4, V domains shown)
VH: EVQLQQSGAELVRPGASVKLSCTVSGFNIKDTYVHWVKQRPEQGLEWIGRIDPANGHTKYDPKLQGTATITADTSSNTAYLQLSSLTSEDTAVYYCATDYYGSSLLDYWGQGTTLTVSS
VL: EVVMTQTPLTLSVTIGQSASISCKSSQSLLDSDGKTYLNWFLQRPGQSPKRLMHLVSKLDSGVPDRFTGSGSGTDFTLKISGVEAEDLGVYYCWQGTYFPYTFGGGTKLETK
notes: T0010 gives only CDR numbers (HCDR 25-27, LCDR 10-12)
Turning to B6, the IC50 in experiment [5] stood at 0.0757 µg/mL. Further, the EC50 in experiment [6] stood at 0.0373 µg/mL.
